Measurements reported in patent US5624900A, “Peptide or its salts” (Kuraray Co., Ltd., priority 1990, dated 1997).
Non-standard residues stand in square brackets, D forms with d. Nle = CCCC[C@H](N)C(=O)O

Target: T1, human IL-1β (Homo sapiens, UniProt P01584)
T1 construct: purchased Amersham Japan
Experiment: Binding activity for human IL-1: 125I-labelled human IL-1β retained on peptide-immobilized cellulose adsorbent
Conditions: radioactivity remaining on 100 mg adsorbent (1 mg peptide fixed per g cellulose) after about 300 Bq 125I-labelled human IL-1β, room temperature 3 hours, 5 washes; γ counter
Procedure: Adsorbents each having fixed 1 mg of one of the peptides obtained in Examples 1 through 15 and the Comparative Example were prepared as follows. One gram of a granular cellulose (CM-CELLULOFINE CH, available from Seikagaku Kogyo Co., Ltd.) is suspended in 5 ml of dioxane purified by distillation in the presence of sodium metal. To the suspension thus obtained was added 0.05 g of N-hydroxysuccinimide and 0.1 g of dicyclohexylcarbodimide, and the mixture was shaken at a room temperature for 1 night. The mixture thus obtained was washed with a 0.02 mole/l phosphate buffer (pH: 7.4) and then filtered with suction. The granules thus obtained were mixed with 1 ml of 0.02 mol/l phosphate buffer or purified water containing 1 mg of each one of the peptides obtained in Examples 1 through 15 and the Comparative Example. The mixtures were shaken overnight at a temperature of 4° C. and filtered with suction.
From the thus prepared adsorbents, 100 mg each was weighed, and thereto was added 100 μl of 5% solution of bovine serum albumin in PBS (a 10 mM phosphate buffer solution containing 0.15M NaCl, pH: 7.4). The mixtures were incubated overnight at 4° C., then about 300 Bq of ^125 I-labelled human IL-1β (purchased from Amersham Japan) was added to them and the mixtures were incubated at a room temperature for 3 hours. The reaction mixtures thus obtained were washed 5 times with Tris buffer containing 0.2% of Triton X-100 and then tested for radioactivity remaining on the adsorbents with a γ counter.

T1 sequence (P01584 117-269): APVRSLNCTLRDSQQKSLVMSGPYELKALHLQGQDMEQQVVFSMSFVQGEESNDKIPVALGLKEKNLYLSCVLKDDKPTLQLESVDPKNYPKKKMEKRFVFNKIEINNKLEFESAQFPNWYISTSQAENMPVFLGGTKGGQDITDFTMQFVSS

| Compound | Radioactivity (cpm) |
| --- | --- |
| H-CLRIKIS-OH [Example 6] | 815 cpm |
| H-Tyr-Ser-Leu-Glu-Ile-Lys-Ile-Ser-OH (H-YSLEIKIS-OH) [Comparative Example, reference compound] | 84 cpm |
| H-Lys-Asn-Ser-Ser-Tyr-Cys-Leu-Arg-Ile-Lys-Ile-Ser-Ala-Lys-Phe-Val-Glu-OH (H-KNSSYCLRIKISAKFVE-OH) [Example 2] | 764 cpm |
| H-Tyr-Cys-Leu-Arg-Ile-Lys-Ile-Ser-OH (H-YCLRIKIS-OH) [Example 5] | 840 cpm |
| NCC(=O)O [Reference Example, glycine, reference compound] | 45 cpm |
| H-Tyr-Cys-Leu-Arg-Ile-Lys-Ile-Ser-Ala-Lys-OH (H-YCLRIKISAK-OH) [Example 4] | 891 cpm |
| H-K[Nle]C[Nle]R[Nle]Q[Nle]S-OH [Example 11] | 1292 cpm |
| H-Lys-Ile-Cys-Leu-Arg-Ile-Gln-Ile-Ser-OH (H-KICLRIQIS-OH) [Example 13] | 1245 cpm |
| H-Lys-Ile-Cys-Ile-Arg-Ile-Gln-Ile-Ser-NH2 (H-KICIRIQIS-NH2) [Example 15] | 1427 cpm |
| H-Lys-Tyr-Cys-Leu-Arg-Ile-Lys-Ile-Ser-Ala-Lys-Phe-Val-Glu-Asn-Glu-Pro-OH (H-KYCLRIKISAKFVENEP-OH) [Example 3] | 1171 cpm |
| H-Lys-Cys-Leu-Arg-Ile-Lys-Ile-Ser-OH (H-KCLRIKIS-OH) [Example 7] | 576 cpm |
| H-Cys-Leu-Gln-Ile-Lys-Ile-Ser-OH (H-CLQIKIS-OH) [Example 8] | 678 cpm |
| H-Lys-Ile-Cys-Ile-Arg-Ile-Gln-Ile-Ser-OH (H-KICIRIQIS-OH) [Example 10] | 1373 cpm |
| H-Lys-Ile-Cys-Ile-His-Ile-Gln-Ile-Ser-OH (H-KICIHIQIS-OH) [Example 12] | 1167 cpm |
| H-Lys-Cys-Leu-Gln-Ile-Gln-Ile-Ser-OH (H-KCLQIQIS-OH) [Example 9] | 1100 cpm |
| H-Lys-Cys-Val-Gln-Val-Gln-Val-Ser-OH (H-KCVQVQVS-OH) [Example 14] | 890 cpm |
| H-Val-Val-Arg-Asn-Ser-Ser-Tyr-Cys-Leu-Arg-Ile-Lys-Ile-Ser-Ala-Lys-OH (H-VVRNSSYCLRIKISAK-OH) [Example 1] | 922 cpm |
